Data taken from publication PMC4678854.

Experiments:
Test in all cases: EMSA
TnsE E522K+D523N = molecular target: T1, TnsE E522K+D523N (Escherichia coli (transposon Tn7), UniProt P05845 1-538, E522K;D523N)
T1 sequence: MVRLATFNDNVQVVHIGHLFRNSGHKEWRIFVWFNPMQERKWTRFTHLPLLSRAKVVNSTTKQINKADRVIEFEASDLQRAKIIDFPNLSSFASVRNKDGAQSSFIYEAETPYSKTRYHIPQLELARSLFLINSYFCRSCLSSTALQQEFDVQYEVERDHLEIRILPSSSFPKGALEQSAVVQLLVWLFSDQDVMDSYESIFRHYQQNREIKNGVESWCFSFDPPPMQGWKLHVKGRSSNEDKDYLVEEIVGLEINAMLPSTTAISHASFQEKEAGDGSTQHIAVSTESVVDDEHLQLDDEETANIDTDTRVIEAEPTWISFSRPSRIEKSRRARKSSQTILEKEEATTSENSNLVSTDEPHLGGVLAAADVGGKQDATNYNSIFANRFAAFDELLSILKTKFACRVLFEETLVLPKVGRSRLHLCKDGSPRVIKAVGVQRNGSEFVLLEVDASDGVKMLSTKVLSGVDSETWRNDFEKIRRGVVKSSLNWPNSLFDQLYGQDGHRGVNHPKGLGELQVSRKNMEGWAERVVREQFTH

TnsE G483R = molecular target: T2, TnsE G483R (Escherichia coli (transposon Tn7), UniProt P05845 1-538, G483R)
T2 sequence: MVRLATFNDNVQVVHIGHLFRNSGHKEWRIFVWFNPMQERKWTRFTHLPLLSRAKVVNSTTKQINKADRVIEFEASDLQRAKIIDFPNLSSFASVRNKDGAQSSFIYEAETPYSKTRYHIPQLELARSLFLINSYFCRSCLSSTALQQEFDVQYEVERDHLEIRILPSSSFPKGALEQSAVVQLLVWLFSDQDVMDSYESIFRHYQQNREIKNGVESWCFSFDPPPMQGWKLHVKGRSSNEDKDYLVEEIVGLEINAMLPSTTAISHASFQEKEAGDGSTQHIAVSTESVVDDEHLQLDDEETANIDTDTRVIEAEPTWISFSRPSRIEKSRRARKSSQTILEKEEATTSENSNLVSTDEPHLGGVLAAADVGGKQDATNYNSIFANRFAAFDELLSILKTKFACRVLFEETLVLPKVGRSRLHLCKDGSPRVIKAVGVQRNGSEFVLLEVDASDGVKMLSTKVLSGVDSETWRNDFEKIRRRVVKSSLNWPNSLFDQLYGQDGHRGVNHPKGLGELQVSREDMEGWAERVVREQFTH

TnsE D523N = molecular target: T3, TnsE D523N (Escherichia coli (transposon Tn7), UniProt P05845 1-538, D523N)
T3 sequence: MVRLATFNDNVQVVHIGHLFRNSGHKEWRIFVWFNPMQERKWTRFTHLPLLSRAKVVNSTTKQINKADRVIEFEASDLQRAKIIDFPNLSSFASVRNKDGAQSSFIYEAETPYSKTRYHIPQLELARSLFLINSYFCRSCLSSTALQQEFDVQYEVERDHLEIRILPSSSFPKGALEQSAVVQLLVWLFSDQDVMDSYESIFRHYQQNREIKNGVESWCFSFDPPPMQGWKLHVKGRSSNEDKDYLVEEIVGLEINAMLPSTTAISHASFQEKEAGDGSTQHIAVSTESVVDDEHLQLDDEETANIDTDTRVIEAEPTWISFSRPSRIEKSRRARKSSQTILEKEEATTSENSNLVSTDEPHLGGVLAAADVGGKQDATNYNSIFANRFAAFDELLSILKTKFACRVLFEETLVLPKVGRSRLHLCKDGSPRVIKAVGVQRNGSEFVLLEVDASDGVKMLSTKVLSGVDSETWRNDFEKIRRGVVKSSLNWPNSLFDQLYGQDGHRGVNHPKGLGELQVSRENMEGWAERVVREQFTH

TnsE E516K = molecular target: T4, TnsE E516K (Escherichia coli (transposon Tn7), UniProt P05845 1-538, E516K)
T4 sequence: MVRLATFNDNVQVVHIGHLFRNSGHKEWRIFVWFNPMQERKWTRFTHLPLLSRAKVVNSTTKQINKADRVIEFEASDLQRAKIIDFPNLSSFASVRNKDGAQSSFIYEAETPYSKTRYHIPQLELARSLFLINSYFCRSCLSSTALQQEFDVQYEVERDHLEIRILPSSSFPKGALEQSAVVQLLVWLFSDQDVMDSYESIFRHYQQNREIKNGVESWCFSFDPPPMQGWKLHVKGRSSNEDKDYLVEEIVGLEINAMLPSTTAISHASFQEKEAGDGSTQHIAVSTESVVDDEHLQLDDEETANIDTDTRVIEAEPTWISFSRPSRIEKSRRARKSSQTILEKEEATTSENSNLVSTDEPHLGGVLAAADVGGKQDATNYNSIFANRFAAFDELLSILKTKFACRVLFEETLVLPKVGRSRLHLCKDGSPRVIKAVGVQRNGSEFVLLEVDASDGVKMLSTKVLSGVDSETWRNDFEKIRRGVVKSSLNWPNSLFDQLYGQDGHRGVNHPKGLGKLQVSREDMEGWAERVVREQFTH

TnsE A453V = molecular target: T5, TnsE A453V (Escherichia coli (transposon Tn7), UniProt P05845 1-538, A453V)
T5 sequence: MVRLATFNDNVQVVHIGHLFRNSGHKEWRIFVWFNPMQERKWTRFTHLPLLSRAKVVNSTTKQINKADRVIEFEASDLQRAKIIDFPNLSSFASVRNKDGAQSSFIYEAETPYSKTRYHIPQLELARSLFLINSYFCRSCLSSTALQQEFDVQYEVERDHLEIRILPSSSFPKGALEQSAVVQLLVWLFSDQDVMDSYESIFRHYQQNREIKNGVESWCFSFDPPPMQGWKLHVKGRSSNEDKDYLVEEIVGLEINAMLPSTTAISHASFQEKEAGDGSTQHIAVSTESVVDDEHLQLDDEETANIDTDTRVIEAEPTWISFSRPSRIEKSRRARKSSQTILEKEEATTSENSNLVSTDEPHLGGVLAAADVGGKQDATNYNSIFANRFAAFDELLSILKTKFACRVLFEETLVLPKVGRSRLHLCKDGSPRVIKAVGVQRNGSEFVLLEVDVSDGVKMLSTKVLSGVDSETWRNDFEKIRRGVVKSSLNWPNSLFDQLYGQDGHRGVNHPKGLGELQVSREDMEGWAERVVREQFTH

TnsE E522K = molecular target: T6, TnsE E522K (Escherichia coli (transposon Tn7), UniProt P05845 1-538, E522K)
T6 sequence: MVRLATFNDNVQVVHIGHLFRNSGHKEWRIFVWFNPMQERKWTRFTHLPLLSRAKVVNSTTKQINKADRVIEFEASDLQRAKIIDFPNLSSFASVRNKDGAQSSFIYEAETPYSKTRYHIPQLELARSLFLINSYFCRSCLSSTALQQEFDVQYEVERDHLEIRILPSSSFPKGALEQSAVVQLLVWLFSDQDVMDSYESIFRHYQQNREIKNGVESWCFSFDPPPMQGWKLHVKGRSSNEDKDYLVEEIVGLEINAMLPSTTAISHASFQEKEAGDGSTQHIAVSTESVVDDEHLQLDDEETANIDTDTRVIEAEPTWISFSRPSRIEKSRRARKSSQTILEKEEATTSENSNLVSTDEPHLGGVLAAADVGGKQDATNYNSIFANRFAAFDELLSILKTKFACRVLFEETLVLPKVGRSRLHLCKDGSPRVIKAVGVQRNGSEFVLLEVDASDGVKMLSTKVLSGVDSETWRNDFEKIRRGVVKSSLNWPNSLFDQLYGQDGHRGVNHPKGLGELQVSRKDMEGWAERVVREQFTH

TnsE G515R = molecular target: T7, TnsE G515R (Escherichia coli (transposon Tn7), UniProt P05845 1-538, G515R)
T7 sequence: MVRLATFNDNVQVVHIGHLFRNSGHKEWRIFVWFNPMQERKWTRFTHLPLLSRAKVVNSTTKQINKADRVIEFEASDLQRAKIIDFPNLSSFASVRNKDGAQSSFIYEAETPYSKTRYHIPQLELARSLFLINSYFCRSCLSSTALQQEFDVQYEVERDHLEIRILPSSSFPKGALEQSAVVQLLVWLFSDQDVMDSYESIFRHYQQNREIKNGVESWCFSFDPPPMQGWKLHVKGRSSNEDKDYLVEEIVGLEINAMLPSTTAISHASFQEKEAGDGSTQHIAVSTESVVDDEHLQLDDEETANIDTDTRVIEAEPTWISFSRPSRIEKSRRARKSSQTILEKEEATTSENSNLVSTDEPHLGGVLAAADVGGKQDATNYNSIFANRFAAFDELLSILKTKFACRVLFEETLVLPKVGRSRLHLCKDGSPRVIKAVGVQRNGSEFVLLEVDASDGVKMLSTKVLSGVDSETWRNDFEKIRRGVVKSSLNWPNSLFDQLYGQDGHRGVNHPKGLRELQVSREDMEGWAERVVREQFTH

TnsE wild-type = molecular target: T8, TnsE wild-type (Escherichia coli (transposon Tn7), UniProt P05845 1-538)
T8 sequence: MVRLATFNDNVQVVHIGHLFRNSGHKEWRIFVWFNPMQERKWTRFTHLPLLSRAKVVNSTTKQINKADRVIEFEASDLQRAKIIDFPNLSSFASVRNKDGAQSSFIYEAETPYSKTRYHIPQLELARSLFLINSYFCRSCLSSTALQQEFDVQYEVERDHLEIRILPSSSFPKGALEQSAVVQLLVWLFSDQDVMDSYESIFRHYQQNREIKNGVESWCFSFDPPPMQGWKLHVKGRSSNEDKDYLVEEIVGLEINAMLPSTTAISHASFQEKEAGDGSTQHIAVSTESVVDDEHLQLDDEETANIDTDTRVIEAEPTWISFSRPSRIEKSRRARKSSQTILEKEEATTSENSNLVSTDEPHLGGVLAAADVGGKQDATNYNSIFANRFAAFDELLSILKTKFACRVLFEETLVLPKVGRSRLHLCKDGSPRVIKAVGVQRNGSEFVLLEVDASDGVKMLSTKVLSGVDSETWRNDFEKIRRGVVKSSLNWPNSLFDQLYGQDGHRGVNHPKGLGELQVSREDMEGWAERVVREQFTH

Measured: binding result

B1: 3' recessed-end DNA substrate (mixed)
DNA 1: CCATTAGCAAGGCCGGAAACGTCACCAATGCAACGATCAGCCAACTAAACTAGGACATCTTTGCC
DNA 2: GGCAAAGATGTCCTAGTTTAGTTGGCTGAT
binds: all assays above
